Data: US20190248875A1

Biological target: envelope protein of DENV type 2 (DENV2), strain NGC M29095 (dengue virus type 2 (strain NGC)) (UniProt P14340)
Experiment: cell-based or functional assay

4G2 antibodies against the envelope protein of Flavivirus (antibody)
fold of infection enhancement of DENV2 in K562 cells (ADE assay): 60 fold
